# Results as given in the supplement of paper PMC9732359.
# ± gives the uncertainty stated by the source.
# Test: protein stability index of a GFP-peptide fusion (yeast GPS) (PSI 1-4); higher = more stable; sorted into four equal gates, so the index is relative within each strain
# Procedure, shortened: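 Tiled yeast protein peptides of 17 residues were each joined downstream of GFP, on plasmids that also express Cherry. The pooled library was maintained in yeast, and mid-log cultures in leucine-free medium were sorted into four equal gates on the GFP/Cherry ratio. Plasmids from every gate were amplified by PCR and sequenced on Illumina, with barcodes linking reads to strains. The protein stability index of a peptide is its gate-number-weighted read frequency summed over the gates.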
Sequence,protein stability index (doa10∆),protein stability index (pdr5∆),protein stability index (san1∆),protein stability index (ubr1∆)
LPHSPLWELALAFIPNI [YML031W/NDC1],1.36 ± 0.084,1.25 ± 0.044,1.24 ± 0.092,1.08 ± 0.05
NILWRIADKTTYDKETI [SIR4],3.2 ± 0.12,3.16 ± 0.084,2.98 ± 0.1,3.17 ± 0.052
ALIDTEFANFELKDICS [YML103C/NUP188],2.12 ± 0.063,2.49 ± 0.06,2.65 ± 0.063,2.16 ± 0.037
RALQENGIIMNGTLIGC [YMR153W/NUP53],1.88 ± 0.09,2.28 ± 0.071,2.93 ± 0.13,3.06 ± 0.066
TEGEPKKKRGFLGLFGR [SRP68],3.17 ± 0.094,3.46 ± 0.093,2.92 ± 0.068,3.01 ± 0.06
DYRPAEETEAQAEPVEA [RPS3],2.93 ± 0.075,3.26 ± 0.065,3.14 ± 0.038,3.17 ± 0.052
KRLIAHDWLNALDGDLI [YCG1],2.18 ± 0.17,2.9 ± 0.16,2.6 ± 0.17,3.23 ± 0.081
DSLTRAVKDQQKYTKEM [SNF2],1.47 ± 0.19,1.8 ± 0.11,1.25 ± 0.15,
YRKTEGIFEKAKAKAVT [YMR153W/NUP53],2.56 ± 0.09,2.54 ± 0.12,2.65 ± 0.13,2.48 ± 0.075
SVINVSAQRDRRYRKRN [RPS17B],,3.04 ± 0.25,3.23 ± 0.24,
LIIIAANTPVLRKSELE [RPL30],2.2 ± 0.11,2.68 ± 0.14,2.31 ± 0.094,2.77 ± 0.13
NYIPGNPLVTPASIVPE [COB],1.81 ± 0.068,2.36 ± 0.071,2.42 ± 0.1,2.56 ± 0.086
KDSYVRIANIEQNHLDN [YDL088C/ASM4],3.12 ± 0.14,3.43 ± 0.28,3.05 ± 0.13,3.18 ± 0.13
KIIPKDISATQLPKQLW [ITC1],2.22 ± 0.11,2.43 ± 0.14,2.45 ± 0.12,2.32 ± 0.13
RLENKLSEIESLDEILL [SRP68],2.97 ± 0.095,2.99 ± 0.11,2.92 ± 0.11,3 ± 0.085
NRSNDALIKFMEYHISN [FAS2],2.93 ± 0.074,2.55 ± 0.078,2.96 ± 0.084,2.45 ± 0.057
ENFAKGEHISAIVPGQS [SWP82],3.01 ± 0.064,3.18 ± 0.085,2.87 ± 0.06,3.05 ± 0.055
VKVKVSYQKLLKNYVLN [PRP8],1.33 ± 0.043,1.36 ± 0.035,1.46 ± 0.062,1.63 ± 0.036
NNNDNDANRNANNIVNI [GRR1],2.94 ± 0.052,3 ± 0.05,2.9 ± 0.036,3.04 ± 0.045
INDFKKIGRENENENED [POP5],,3.38 ± 0.22,2.76 ± 0.19,2.49 ± 0.27
DEKVTILVDSLTGNQLP [SWI1],2.76 ± 0.057,2.72 ± 0.064,2.9 ± 0.04,2.95 ± 0.046
HPAYLFKGLETPLKARQ [YLR018C/POM34],2.16 ± 0.073,2.26 ± 0.057,1.36 ± 0.077,2.08 ± 0.043

Sequence,protein stability index (doa10∆),protein stability index (pdr5∆),protein stability index (san1∆),protein stability index (ubr1∆)
NLDNLQKVSQLESADKQ [POP4],3.06 ± 0.1,2.59 ± 0.1,3.01 ± 0.092,2.86 ± 0.18
LLTLIVREYEQPDANKK [ISW2],,,3.09 ± 0.2,
EVTDKNYYYLFDKKSFF [PRP8],2.92 ± 0.056,2.44 ± 0.043,2.9 ± 0.041,2.84 ± 0.04
QNIILRSTMMKFLKIAS [RPN3],2.15 ± 0.072,2.42 ± 0.067,2.86 ± 0.077,3.03 ± 0.048
YIDYSSKRYIPSVNDFV [RRP40],2.51 ± 0.048,2.83 ± 0.051,2.42 ± 0.1,2.6 ± 0.078
GTGRAVARIPRVGGGGT [RPL4A],,,2.68 ± 0.21,
EMKNIRGPYLVIVPLST [SNF2],1.44 ± 0.054,1.51 ± 0.053,1.44 ± 0.087,1.38 ± 0.043
PMEVMGLMLGEFVDDYT [RPN11],3.29 ± 0.12,3.28 ± 0.095,3.12 ± 0.14,3.08 ± 0.074
FSFGAATPSAKEASQED [YLR335W/NUP2],3.29 ± 0.062,3.25 ± 0.074,3.12 ± 0.055,3.16 ± 0.087
IINPHAIPSRMTVAHLI [RPB2],1.79 ± 0.054,2.06 ± 0.044,1.86 ± 0.076,2.1 ± 0.046
LTNLLSQLNIQLSQDEH [SRP72],3.01 ± 0.048,3.03 ± 0.051,3.21 ± 0.046,3.09 ± 0.042
TSVDGKKRSKVRKETYS [HTB2],3.04 ± 0.087,3.19 ± 0.14,3.15 ± 0.18,3.31 ± 0.067
YSPTSPSYSPTSPGYSP [RPO21],2.8 ± 0.044,2.94 ± 0.037,2.95 ± 0.039,2.95 ± 0.034
LIQLGVKPLESSAKRSK [SRP72],3.11 ± 0.073,2.97 ± 0.11,2.56 ± 0.12,2.88 ± 0.045
DQWLEEYKKHFPPNLEK [UBP6],2.77 ± 0.081,3.06 ± 0.053,2.88 ± 0.05,2.96 ± 0.067
VEKRIGKIVSQRGKWNL [RGR1],2.88 ± 0.065,2.96 ± 0.049,3.16 ± 0.06,2.71 ± 0.036
LKWSACTSLMDIIVAIK [IRR1],2.65 ± 0.14,2.72 ± 0.057,2.44 ± 0.16,2.83 ± 0.071
GSCTRQLAGKSGEDTNV [YOR098C/NUP1],3.38 ± 0.2,3.51 ± 0.15,3.34 ± 0.12,3.17 ± 0.082
EQHEEKAAEGEEKEEEN [QCR6],3.25 ± 0.12,2.92 ± 0.18,2.98 ± 0.23,3.23 ± 0.079
YENIPIYATFLNESDCL [YDL116W/NUP84],2.16 ± 0.098,2.54 ± 0.15,2.15 ± 0.15,2.62 ± 0.1
SLLLKNYLNDMHDSNLQ [SKP1],2.31 ± 0.093,2.48 ± 0.05,1.81 ± 0.093,2.08 ± 0.05
EIDTILSTLRMEADPSL [RPN9],3.04 ± 0.24,3.04 ± 0.21,2.56 ± 0.13,2.67 ± 0.087
